Measured: relative cleavage efficiency

Sequence of fusion protein PRS (chain, as listed by the source): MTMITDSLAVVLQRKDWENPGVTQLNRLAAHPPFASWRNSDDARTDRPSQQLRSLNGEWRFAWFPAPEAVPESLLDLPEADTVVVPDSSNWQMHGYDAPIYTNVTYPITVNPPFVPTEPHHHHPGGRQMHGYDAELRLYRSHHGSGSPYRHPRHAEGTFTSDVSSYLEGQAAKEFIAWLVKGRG
Sequence of fusion protein PRW (chain, as listed by the source): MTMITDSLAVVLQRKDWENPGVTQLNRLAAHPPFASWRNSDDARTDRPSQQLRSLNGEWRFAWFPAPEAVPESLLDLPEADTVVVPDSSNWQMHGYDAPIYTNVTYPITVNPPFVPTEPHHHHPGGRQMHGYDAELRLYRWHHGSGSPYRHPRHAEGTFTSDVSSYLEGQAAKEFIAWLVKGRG
Sequence of fusion protein PRT (chain, as listed by the source): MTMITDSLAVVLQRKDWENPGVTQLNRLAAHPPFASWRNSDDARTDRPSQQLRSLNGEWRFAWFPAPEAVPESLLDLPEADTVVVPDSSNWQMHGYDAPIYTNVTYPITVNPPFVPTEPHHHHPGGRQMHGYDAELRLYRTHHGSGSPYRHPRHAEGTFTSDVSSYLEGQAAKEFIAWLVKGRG
Sequence of fusion protein PRM (chain, as listed by the source): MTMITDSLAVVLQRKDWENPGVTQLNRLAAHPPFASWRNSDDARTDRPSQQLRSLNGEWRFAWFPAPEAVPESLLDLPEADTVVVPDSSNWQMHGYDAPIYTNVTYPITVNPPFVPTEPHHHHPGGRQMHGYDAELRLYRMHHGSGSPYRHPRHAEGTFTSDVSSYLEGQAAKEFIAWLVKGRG
Sequence of fusion protein PRG (chain, as listed by the source): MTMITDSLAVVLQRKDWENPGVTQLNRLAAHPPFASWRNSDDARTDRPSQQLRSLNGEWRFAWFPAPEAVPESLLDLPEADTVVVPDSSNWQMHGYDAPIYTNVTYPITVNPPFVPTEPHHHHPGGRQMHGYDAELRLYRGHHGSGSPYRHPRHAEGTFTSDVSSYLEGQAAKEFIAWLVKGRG
Sequence of fusion protein PRA (chain, as listed by the source): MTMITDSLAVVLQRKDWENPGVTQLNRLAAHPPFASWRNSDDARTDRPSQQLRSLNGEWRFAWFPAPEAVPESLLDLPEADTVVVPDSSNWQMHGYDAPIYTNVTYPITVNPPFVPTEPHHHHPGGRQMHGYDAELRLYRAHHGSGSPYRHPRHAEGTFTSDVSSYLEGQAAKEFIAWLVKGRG
Sequence of fusion protein PRK (chain, as listed by the source): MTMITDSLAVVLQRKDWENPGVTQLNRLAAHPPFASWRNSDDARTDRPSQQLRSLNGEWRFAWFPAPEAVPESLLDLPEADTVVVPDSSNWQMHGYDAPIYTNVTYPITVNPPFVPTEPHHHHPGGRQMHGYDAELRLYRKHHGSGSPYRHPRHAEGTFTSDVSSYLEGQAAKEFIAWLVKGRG
Sequence of fusion protein PRE (chain, as listed by the source): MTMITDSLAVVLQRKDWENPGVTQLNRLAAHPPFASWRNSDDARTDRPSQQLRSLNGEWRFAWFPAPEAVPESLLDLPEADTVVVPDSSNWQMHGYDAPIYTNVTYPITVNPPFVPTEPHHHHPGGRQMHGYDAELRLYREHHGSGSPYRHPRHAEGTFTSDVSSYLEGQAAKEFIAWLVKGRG
Sequence of fusion protein PRQ (chain, as listed by the source): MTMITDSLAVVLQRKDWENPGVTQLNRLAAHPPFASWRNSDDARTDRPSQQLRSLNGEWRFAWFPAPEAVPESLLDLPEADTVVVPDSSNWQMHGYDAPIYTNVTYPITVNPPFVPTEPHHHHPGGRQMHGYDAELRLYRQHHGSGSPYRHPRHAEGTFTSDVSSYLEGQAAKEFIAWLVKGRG
Sequence of fusion protein PRR (chain, as listed by the source): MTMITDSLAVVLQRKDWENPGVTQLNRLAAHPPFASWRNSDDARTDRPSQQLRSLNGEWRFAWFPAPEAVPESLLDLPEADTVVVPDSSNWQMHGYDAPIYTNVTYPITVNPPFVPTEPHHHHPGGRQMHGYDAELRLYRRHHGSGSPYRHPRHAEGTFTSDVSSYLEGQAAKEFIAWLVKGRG
Sequence of fusion protein PRI (chain, as listed by the source): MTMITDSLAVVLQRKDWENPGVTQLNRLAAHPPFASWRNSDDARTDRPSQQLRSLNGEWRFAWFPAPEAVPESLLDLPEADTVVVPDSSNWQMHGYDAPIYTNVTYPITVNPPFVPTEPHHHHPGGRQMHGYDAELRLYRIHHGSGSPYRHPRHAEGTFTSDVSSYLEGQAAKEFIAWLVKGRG
Sequence of fusion protein PRD (chain, as listed by the source): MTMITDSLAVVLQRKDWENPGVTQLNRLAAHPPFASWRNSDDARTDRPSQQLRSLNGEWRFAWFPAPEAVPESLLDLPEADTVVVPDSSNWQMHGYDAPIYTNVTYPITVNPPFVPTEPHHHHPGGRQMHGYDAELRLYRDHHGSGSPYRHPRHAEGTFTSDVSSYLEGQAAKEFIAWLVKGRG
Sequence of fusion protein PRL (chain, as listed by the source): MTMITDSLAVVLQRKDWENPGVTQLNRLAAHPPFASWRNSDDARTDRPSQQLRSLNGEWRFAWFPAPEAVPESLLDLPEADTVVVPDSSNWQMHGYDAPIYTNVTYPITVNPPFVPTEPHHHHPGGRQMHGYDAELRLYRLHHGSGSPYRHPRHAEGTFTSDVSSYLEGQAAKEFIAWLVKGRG
Sequence of fusion protein PRF (chain, as listed by the source): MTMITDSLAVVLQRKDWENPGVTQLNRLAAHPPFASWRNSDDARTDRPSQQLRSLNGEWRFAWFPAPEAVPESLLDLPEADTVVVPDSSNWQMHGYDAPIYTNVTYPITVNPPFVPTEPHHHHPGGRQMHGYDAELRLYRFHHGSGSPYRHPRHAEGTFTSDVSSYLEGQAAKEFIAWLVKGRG
Sequence of fusion protein PRH (chain, as listed by the source): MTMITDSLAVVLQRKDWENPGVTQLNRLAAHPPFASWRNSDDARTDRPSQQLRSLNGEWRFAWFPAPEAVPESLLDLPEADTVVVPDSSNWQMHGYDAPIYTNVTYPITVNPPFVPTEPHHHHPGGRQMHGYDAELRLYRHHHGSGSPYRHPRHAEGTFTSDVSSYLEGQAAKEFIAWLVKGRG
Sequence of fusion protein PRN (chain, as listed by the source): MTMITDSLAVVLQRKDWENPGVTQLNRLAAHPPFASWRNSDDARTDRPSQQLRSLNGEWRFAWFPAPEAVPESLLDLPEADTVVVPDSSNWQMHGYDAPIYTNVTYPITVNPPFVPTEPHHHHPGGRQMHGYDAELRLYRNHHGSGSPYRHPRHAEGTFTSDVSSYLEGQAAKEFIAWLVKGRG
Sequence of fusion protein PRY (chain, as listed by the source): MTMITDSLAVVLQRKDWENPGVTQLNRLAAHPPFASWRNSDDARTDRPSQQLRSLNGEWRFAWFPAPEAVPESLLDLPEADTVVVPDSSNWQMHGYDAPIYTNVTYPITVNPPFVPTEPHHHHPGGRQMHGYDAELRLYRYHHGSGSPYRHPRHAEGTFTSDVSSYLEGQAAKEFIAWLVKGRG
Sequence of fusion protein PRC (chain, as listed by the source): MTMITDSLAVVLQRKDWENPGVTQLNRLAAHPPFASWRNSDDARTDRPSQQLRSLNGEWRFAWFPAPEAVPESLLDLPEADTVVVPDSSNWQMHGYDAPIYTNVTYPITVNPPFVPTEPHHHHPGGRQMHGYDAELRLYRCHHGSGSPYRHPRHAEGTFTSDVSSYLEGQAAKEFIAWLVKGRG

B1: OmpT protease variant OmpT D97P (protein)
chain: STETLSFTPDNINADISLGTLSGKTKERVYLAEEGGRKVSQLDWKFNNAAIIKGAINWDLMPQISIGAAGWTTLGSRGGNMVDQDWMDSSNPGTWTPESRHPDTQLNYANEFDLNIKGWLLNEPNYRLGLMAGYQESRYSFTARGGSYIYSSEEGFRDDIGSFPNGERAIGYKQRFKMPYIGLTGSYRYEDFELGGTFKYSGWVESSDNDEHYDPGKRITYRSKVKDQNYYSVAVNAGYYVTPNAKVYVEGAWNRVTNKKGNTSLYDHNNNTSDYSKNGAGIENYNFITTAGLKYTF
less than 3.0%: fusion protein PRH | fusion protein PRR | fusion protein PRW | fusion protein PRS | fusion protein PRG | fusion protein PRK | fusion protein PRY | fusion protein PRT | fusion protein PRF | fusion protein PRQ | fusion protein PRM | fusion protein PRN | fusion protein PRE | fusion protein PRC | fusion protein PRD | fusion protein PRA | fusion protein PRI | fusion protein PRL | fusion protein PRP

B2: OmpT protease variant OmpT D97W (protein)
chain: STETLSFTPDNINADISLGTLSGKTKERVYLAEEGGRKVSQLDWKFNNAAIIKGAINWDLMPQISIGAAGWTTLGSRGGNMVDQDWMDSSNPGTWTWESRHPDTQLNYANEFDLNIKGWLLNEPNYRLGLMAGYQESRYSFTARGGSYIYSSEEGFRDDIGSFPNGERAIGYKQRFKMPYIGLTGSYRYEDFELGGTFKYSGWVESSDNDEHYDPGKRITYRSKVKDQNYYSVAVNAGYYVTPNAKVYVEGAWNRVTNKKGNTSLYDHNNNTSDYSKNGAGIENYNFITTAGLKYTF
less than 3.0%: fusion protein PRH | fusion protein PRR | fusion protein PRW | fusion protein PRS | fusion protein PRG | fusion protein PRK | fusion protein PRY | fusion protein PRT | fusion protein PRF | fusion protein PRQ | fusion protein PRM | fusion protein PRN | fusion protein PRE | fusion protein PRC | fusion protein PRD | fusion protein PRA | fusion protein PRI | fusion protein PRL | fusion protein PRP

B3: OmpT protease variant OmpT D97G (protein)
chain: STETLSFTPDNINADISLGTLSGKTKERVYLAEEGGRKVSQLDWKFNNAAIIKGAINWDLMPQISIGAAGWTTLGSRGGNMVDQDWMDSSNPGTWTGESRHPDTQLNYANEFDLNIKGWLLNEPNYRLGLMAGYQESRYSFTARGGSYIYSSEEGFRDDIGSFPNGERAIGYKQRFKMPYIGLTGSYRYEDFELGGTFKYSGWVESSDNDEHYDPGKRITYRSKVKDQNYYSVAVNAGYYVTPNAKVYVEGAWNRVTNKKGNTSLYDHNNNTSDYSKNGAGIENYNFITTAGLKYTF
less than 3.0%: fusion protein PRH | fusion protein PRR | fusion protein PRW | fusion protein PRS | fusion protein PRG | fusion protein PRK | fusion protein PRY | fusion protein PRT | fusion protein PRF | fusion protein PRQ | fusion protein PRM | fusion protein PRN | fusion protein PRE | fusion protein PRC | fusion protein PRD | fusion protein PRA | fusion protein PRI | fusion protein PRL | fusion protein PRP

B4: OmpT protease variant OmpT D97Y (protein)
chain: STETLSFTPDNINADISLGTLSGKTKERVYLAEEGGRKVSQLDWKFNNAAIIKGAINWDLMPQISIGAAGWTTLGSRGGNMVDQDWMDSSNPGTWTYESRHPDTQLNYANEFDLNIKGWLLNEPNYRLGLMAGYQESRYSFTARGGSYIYSSEEGFRDDIGSFPNGERAIGYKQRFKMPYIGLTGSYRYEDFELGGTFKYSGWVESSDNDEHYDPGKRITYRSKVKDQNYYSVAVNAGYYVTPNAKVYVEGAWNRVTNKKGNTSLYDHNNNTSDYSKNGAGIENYNFITTAGLKYTF
less than 3.0%: fusion protein PRH | fusion protein PRR | fusion protein PRW | fusion protein PRS | fusion protein PRG | fusion protein PRK | fusion protein PRY | fusion protein PRT | fusion protein PRF | fusion protein PRQ | fusion protein PRM | fusion protein PRN | fusion protein PRE | fusion protein PRC | fusion protein PRD | fusion protein PRA | fusion protein PRI | fusion protein PRL | fusion protein PRP

B5: OmpT protease variant OmpT D97K (protein)
chain: STETLSFTPDNINADISLGTLSGKTKERVYLAEEGGRKVSQLDWKFNNAAIIKGAINWDLMPQISIGAAGWTTLGSRGGNMVDQDWMDSSNPGTWTKESRHPDTQLNYANEFDLNIKGWLLNEPNYRLGLMAGYQESRYSFTARGGSYIYSSEEGFRDDIGSFPNGERAIGYKQRFKMPYIGLTGSYRYEDFELGGTFKYSGWVESSDNDEHYDPGKRITYRSKVKDQNYYSVAVNAGYYVTPNAKVYVEGAWNRVTNKKGNTSLYDHNNNTSDYSKNGAGIENYNFITTAGLKYTF
less than 3.0%: fusion protein PRH | fusion protein PRR | fusion protein PRW | fusion protein PRS | fusion protein PRG | fusion protein PRK | fusion protein PRY | fusion protein PRT | fusion protein PRF | fusion protein PRQ | fusion protein PRM | fusion protein PRN | fusion protein PRE | fusion protein PRC | fusion protein PRD | fusion protein PRA | fusion protein PRI | fusion protein PRL | fusion protein PRP

B6: OmpT protease variant OmpT D97R (protein)
chain: STETLSFTPDNINADISLGTLSGKTKERVYLAEEGGRKVSQLDWKFNNAAIIKGAINWDLMPQISIGAAGWTTLGSRGGNMVDQDWMDSSNPGTWTRESRHPDTQLNYANEFDLNIKGWLLNEPNYRLGLMAGYQESRYSFTARGGSYIYSSEEGFRDDIGSFPNGERAIGYKQRFKMPYIGLTGSYRYEDFELGGTFKYSGWVESSDNDEHYDPGKRITYRSKVKDQNYYSVAVNAGYYVTPNAKVYVEGAWNRVTNKKGNTSLYDHNNNTSDYSKNGAGIENYNFITTAGLKYTF
less than 3.0%: fusion protein PRH | fusion protein PRR | fusion protein PRW | fusion protein PRS | fusion protein PRG | fusion protein PRK | fusion protein PRY | fusion protein PRT | fusion protein PRF | fusion protein PRQ | fusion protein PRM | fusion protein PRN | fusion protein PRE | fusion protein PRC | fusion protein PRD | fusion protein PRA | fusion protein PRI | fusion protein PRL | fusion protein PRP
